Eleven proteins from patent US20240124865 can be followed below.

For the data set, the target named is T1, FRETS-VWF73 substrate (VWF fragment comprising VWFA2 domain residues 1596 to 1668).
T1 chain: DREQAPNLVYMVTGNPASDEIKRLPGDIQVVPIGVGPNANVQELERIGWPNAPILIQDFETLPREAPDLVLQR

Where a chain is given by its changes, count along the chain named. Names and notes keep the numbering of the source.

B1: ADAMTS13 A1144I variant (Exemplified A1144I variant) (protein)
chain: AAGGILHLELLVAVGPDVFQAHQEDTERYVLTNLNIGAELLRDPSLGAQFRVHLVKMVILTEPEGAPNITANLTSSLLSVCGWSQTINPEDDTDPGHADLVLYITRFDLELPDGNRQVRGVTQLGGACSPTWSCLITEDTGFDLGVTIAHEIGHSFGLEHDGAPGSGCGPSGHVMASDGAAPRAGLAWSPCSRRQLLSLLSAGRARCVWDPPRPQPGSAGHPPDAQPGLYYSANEQCRVAFGPKAVACTFAREHLDMCQALSCHTDPLDQSSCSRLLVPLLDGTECGVEKWCSKGRCRSLVELTPIAAVHGRWSSWGPRSPCSRSCGGGVVTRRRQCNNPRPAFGGRACVGADLQAEMCNTQACEKTQLEFMSQQCARTDGQPLRSSPGGASFYHWGAAVPHSQGDALCRHMCRAIGESFIMKRGDSFLDGTRCMPSGPREDGTLSLCVSGSCRTFGCDGRMDSQQVWDRCQVCGGDNSTCSPRKGSFTAGRAREYVTFLTVTPNLTSVYIANHRPLFTHLAVRIGGRYVVAGKMSISPNTTYPSLLEDGRVEYRVALTEDRLPRLEEIRIWGPLQEDADIQVYRRYGEEYGNLTRPDITFTYFQPKPRQAWVWAAVRGPCSVSCGAGLRWVNYSCLDQARKELVETVQCQGSQQPPAWPEACVLEPCPPYWAVGDFGPCSASCGGGLRERPVRCVEAQGSLLKTLPPARCRAGAQQPAVALETCNPQPCPARWEVSEPSSCTSAGGAGLALENETCVPGADGLEAPVTEGPGSVDEKLPAPEPCVGMSCPPGWGHLDATSAGEKAPSPWGSIRTGAQAAHVWTPAAGSCSVSCGRGLMELRFLCMDSALRVPVQEELCGLASKPGSRREVCQAVPCPARWQYKLAACSVSCGRGVVRRILYCARAHGEDDGEEILLDTQCQGLPRPEPQEACSLEPCPPRWKVMSLGPCSASCGLGTARRSVACVQLDQGQDVEVDEAACAALVRPEASVPCLIADCTYRWHVGTWMECSVSCGDGIQRRRDTCLGPQAQAPVPADFCQHLPKPVTVRGCWAGPCVGQGTPSLVPHEEIAAPGRTTATPAGASLEWSQARGLLFSPAPQPRRLLPGPQENSVQSSACGRQHLEPTGTIDMRGPGQADCAVAIGRPLGEVVTLRVLESSLNCSAGDMLLLWGRLTWRKMCRKLLDMTFSSKTNTLVVRQRCGRPGGGVLLRYGSQLAPETFYRECDMQLFGPWGEIVSPSLSPATSNAGGCRLFINVAPHARIAIHALATNMGAGTEGANASYILIRDTHSLRTTAFHGQQVLYWESESSQAEMEFSEGFLKAQASLRGQYWTLQSWVPEMQDPQSWKGKEGTSRGPFEQKLISEEDLNMHTGHHHHHH
For the protein B1, the “proteolytic activity, FRETS-VWF73 assay” value is “induces a similar constitutive activity to that seen with the A1144V, A1146V variants”.

B2: Myc/His6-tagged ADAMTS13 P1180V variant (Exemplified P1180V variant) (protein)
chain: B1 chain with I1070A, P1106V
As for B2, the “proteolytic activity, FRETS-VWF73 assay, absence of VWF-D4CK, fold over wildtype ADAMTS13” value is given as “more than 4-fold higher than wildtype ADAMTS13”; the “proteolytic activity, FRETS-VWF73 assay, in the absence and in the presence of the activating VWF-D4CK fragment” value is “displayed significantly higher proteolytic activity compared to wildtype ADAMTS13 and the R568K/F592Y/R660K/Y661F/Y665F variant”.

B3: ADAMTS13 P1182I variant (Exemplified P1182I variant) (protein)
chain: B1 chain with I1070A, P1108I
Consider B3, for which the “proteolytic activity, FRETS-VWF73 assay, fold increase” value (shortened to “proteolytic activity … fold increase”) is given as “Induces greater than 10-fold increase in activity”.

B4: ADAMTS13 P1182K variant (Exemplified P1182K variant) (protein)
chain: B1 chain with I1070A, P1108K
As to B4, the “proteolytic activity … fold increase” value is “Induces greater than 10-fold increase in activity”.

B5: Myc/His6-tagged ADAMTS13 P1182V variant (Exemplified P1182V variant) (protein)
chain: B1 chain with I1070A, P1108V
Consider B5, for which the “proteolytic activity, FRETS-VWF73 assay, absence of VWF-D4CK, fold over wildtype ADAMTS13” value is “more than 4-fold higher than wildtype ADAMTS13”; the “proteolytic activity, FRETS-VWF73 assay, in the absence and in the presence of the activating VWF-D4CK fragment” value is “displayed significantly higher proteolytic activity compared to wildtype ADAMTS13 and the R568K/F592Y/R660K/Y661F/Y665F variant”.

B6: Myc/His6-tagged recombinant wildtype human ADAMTS13 (Exemplified wildtype ADAMTS13) (protein)
chain: B1 chain with I1070A
For the protein B6, the “proteolytic activity, FRETS-VWF73 assay, basal (no VWF-D4CK); reference for all other activities” value is given as “All activities are presented relative to the basal activity of wtADAMTS13 (100%)”.

B7: Myc/His6-tagged ADAMTS13 A1146V variant (Exemplified A1146V variant) (protein)
chain: B1 chain with I1070A, A1072V
On to B7, for which the “proteolytic activity, FRETS-VWF73 assay, absence of VWF-D4CK, fold over wildtype ADAMTS13” value is given as “more than 4-fold higher than wildtype ADAMTS13”; the “proteolytic activity, FRETS-VWF73 assay, in the absence and in the presence of the activating VWF-D4CK fragment” value is “displayed significantly higher proteolytic activity compared to wildtype ADAMTS13 and the R568K/F592Y/R660K/Y661F/Y665F variant”.

B8: Myc/His6-tagged ADAMTS13 A1144V variant (Exemplified A1144V variant) (protein)
chain: B1 chain with I1070V
Take B8: the “proteolytic activity, FRETS-VWF73 assay, absence of VWF-D4CK, fold over wildtype ADAMTS13” value is “more than 4-fold higher than wildtype ADAMTS13”; the “proteolytic activity, FRETS-VWF73 assay, in the absence and in the presence of the activating VWF-D4CK fragment” value is “displayed significantly higher proteolytic activity compared to wildtype ADAMTS13 and the R568K/F592Y/R660K/Y661F/Y665F variant”.

B9: ADAMTS13 P1180I variant (Exemplified P1180I variant) (protein)
chain: B1 chain with I1070A, P1106I
Turning to B9, the “proteolytic activity … fold increase” value is given as “Induces greater than 10-fold increase in activity”.

B10: ADAMTS13 A1146I variant (Exemplified A1146I variant) (protein)
chain: B1 chain with I1070A, A1072I
Regarding B10, the “proteolytic activity, FRETS-VWF73 assay” value is recorded as “induces a similar constitutive activity to that seen with the A1144V, A1146V variants”.

B11: ADAMTS13 P1180K variant (Exemplified P1180K variant) (protein)
chain: B1 chain with I1070A, P1106K
Consider B11, for which the “proteolytic activity … fold increase” value is recorded as “Induces greater than 10-fold increase in activity”.
